The results in this text go back to patent publication US20200062804A1 (ADRX, published 2020).

Several values for one entry are separate records, joined by “and”; a condition that tells them apart may be missing. Equal values may be shown once. Non-standard residues stand in square brackets, D forms with d. No end group written: not given here. hArg = N=C(N)NCCCC[C@H](N)C(=O)O; NMeK = CN[C@@H](CCCCN)C(=O)O; Phg = N[C@H](C(=O)O)c1ccccc1

The labels stand for the following.
T1: Nat1 (LTIITLE) (also: TFA salt)
T1 peptide: LTIITLE

This assay addresses T1, Nat1 (LTIITLE). As to the kind of experiment: cell-based or functional assay.
On to LRIYHHK, for which the “IC50, Thiofiavin T aggregation assay” value was 152 nM.
Next, IRLRRYR: 153 nM.
As for LTIRYYK, the “IC50, Thiofiavin T aggregation assay” value was 93 nM.
For [dH][dW][dR][dW][dY][dW][dK] [hwrwywk] the value was 159 nM; for IRIRHYRP, 142 nM; for [dR][dW][dR][dW][dH][dH][dR] [rwrwhhr], 156 nM.
For ARIRRYR the value was 144 nM; for IRIRRAR, 37 nM; for LYIRYTH, 180 nM.
For LFRYYQK the value was 100 nM; for [dF][dF][dR][dF][dH][dH][dR] [ffrfhhr], 151 nM.
On to YRLRYLR, for which the “IC50, Thiofiavin T aggregation assay” value is 99 nM.
In the case of YRLRYVR, the “IC50, Thiofiavin T aggregation assay” value came to 175 nM.
LVIRYHR: the “IC50, Thiofiavin T aggregation assay” value was 101 nM.
On to [dF][dW][dR][dW][dH][dR] [fwrwhr], for which the “IC50, Thiofiavin T aggregation assay” value was found to be 88 nM.
Next, [dH][dL][dR][dI][dW][dR][dN] [hlriwrn]: 97 nM.
With LRIRYWK, the “IC50, Thiofiavin T aggregation assay” value came out at 36 nM.
Turning to [dY][dQ][dY][dY][dF][dW][dR] [yqyyfwr], the “IC50, Thiofiavin T aggregation assay” value worked out at 181 nM.
Next, [dR][dW][dH][dW][dH][dW][dR] [rwhwhwr]: 145 nM; [dR][dW][dY][dW][dH][dH][dR] [rwywhhr]: 115 nM.
For the molecule [dS][dF][dW][dY][dK][dR][dR] [sfwykrr], the “IC50, Thiofiavin T aggregation assay” value was 116 nM.
Next, [dH][dW][dR][dY][dH][dR][dR] [hwryhrr]: 139 nM; [dF][dF][dR][dF][dH][dR][dR] [ffrfhrr]: 104 nM; [dL][dW][dR][dR][dY][dH][dR] [lwrryhr]: 108 nM.
On to LRI[NMeK]YHR [LRI(N-Me)KYHR], for which the “IC50, Thiofiavin T aggregation assay” value is 125 nM.
Regarding [dY][dQ][dY][dY][dY][dQ][dR] [yqyyyqr], the “IC50, Thiofiavin T aggregation assay” value worked out at 118 nM.
Next, [dR][dF][dE][dF][dR][dH][dR] [rfefrhr]: 117 nM; [dR][dQ][dW][dY][dH][dW][dR] [rqwyhwr]: 132 nM.
For [dY][dQ][dW][dR][dH][dW][dR] [yqwrhwr] the value was 112 nM.
Next, LRLRHYR: 146 nM; [dK][dY][dR][dW][dY][dR][dH] [kyrwyrh]: 87 nM; [dF][dW][dR][dW][dH][dR][dR] [fwrwhrr]: 147 nM and 164 nM.
Regarding LRIRFFR, the “IC50, Thiofiavin T aggregation assay” value came to 90 nM.
Turning to IR[Phg]RRYR [Ile-Arg-Phg-Arg-Arg-Tyr-Arg], the “IC50, Thiofiavin T aggregation assay” value turned out to be 124 nM.
In the case of [dR][dI][dR][dW][dY][dW][dK] [rirwywk], the “IC50, Thiofiavin T aggregation assay” value turned out to be 110 nM.
Consider LYIKYHR, for which the “IC50, Thiofiavin T aggregation assay” value was found to be 148 nM.
As to [dH][dQ][dR][dY][dY][dW][dR] [hqryywr], the “IC50, Thiofiavin T aggregation assay” value amounted to 138 nM.
Next, [dF][dW][dR][dW][dA][dR][dR] [fwrwarr]: 176 nM.
Next, LRIRHYT: 182 nM; I[hArg]I[hArg]RYR [Ile-homoArg-Ile-homoArg-Arg-Tyr-Arg]: 30 nM; [dQ][dF][dR][dM][dH][dH][dR] [qfrmhhr]: 181 nM.
As to YTRITYH, the “IC50, Thiofiavin T aggregation assay” value stood at 150 nM.
For RFYRYLR the value was 107 nM; for [dQ][dI][dR][dY][dF][dR][dR] [qiryfrr], 167 nM.
